In PMC12871931 (2025) one finds Kd data, which are given here for one molecule.

Ends that are not written are not given here. * marks the point of attachment. 5‑TAMRA = 5-carboxytetramethylrhodamine, N-terminal label, CN(C)c1ccc2c(-c3ccc(C(=O)*)cc3C(=O)[O-])c3ccc(N(C)C)cc3[o+]c2c1

Holding throughout (assay): FP
Assay [1] has as its target importin α2 (IMPα2), Arabidopsis thaliana, recombinant (Arabidopsis thaliana, UniProt F4JL11 1-535).
For assay [2], the target named is importin α3 (IMPα3), Arabidopsis thaliana, recombinant (Arabidopsis thaliana, UniProt O04294 1-531).
Assay [3] concerns the target importin α1 (IMPα1), Arabidopsis thaliana, recombinant (Arabidopsis thaliana, UniProt Q96321 1-532).

Sequence of importin α1 (IMPα1), Arabidopsis thaliana, recombinant (Q96321 whole entry): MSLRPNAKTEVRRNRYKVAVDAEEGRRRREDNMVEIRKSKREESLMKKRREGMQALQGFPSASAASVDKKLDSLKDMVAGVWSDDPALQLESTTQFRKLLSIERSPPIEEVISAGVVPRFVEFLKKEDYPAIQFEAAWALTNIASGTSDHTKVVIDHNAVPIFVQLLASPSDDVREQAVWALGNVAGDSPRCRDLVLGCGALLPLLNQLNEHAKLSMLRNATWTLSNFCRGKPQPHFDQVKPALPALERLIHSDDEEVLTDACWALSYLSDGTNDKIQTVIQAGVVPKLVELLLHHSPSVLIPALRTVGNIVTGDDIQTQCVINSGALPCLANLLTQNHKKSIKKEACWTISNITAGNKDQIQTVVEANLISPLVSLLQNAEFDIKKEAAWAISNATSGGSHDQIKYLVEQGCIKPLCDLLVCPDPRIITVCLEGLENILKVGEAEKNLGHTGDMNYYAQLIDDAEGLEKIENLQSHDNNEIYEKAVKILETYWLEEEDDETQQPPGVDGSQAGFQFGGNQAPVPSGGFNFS
Sequence of importin α3 (IMPα3), Arabidopsis thaliana, recombinant (O04294 whole entry): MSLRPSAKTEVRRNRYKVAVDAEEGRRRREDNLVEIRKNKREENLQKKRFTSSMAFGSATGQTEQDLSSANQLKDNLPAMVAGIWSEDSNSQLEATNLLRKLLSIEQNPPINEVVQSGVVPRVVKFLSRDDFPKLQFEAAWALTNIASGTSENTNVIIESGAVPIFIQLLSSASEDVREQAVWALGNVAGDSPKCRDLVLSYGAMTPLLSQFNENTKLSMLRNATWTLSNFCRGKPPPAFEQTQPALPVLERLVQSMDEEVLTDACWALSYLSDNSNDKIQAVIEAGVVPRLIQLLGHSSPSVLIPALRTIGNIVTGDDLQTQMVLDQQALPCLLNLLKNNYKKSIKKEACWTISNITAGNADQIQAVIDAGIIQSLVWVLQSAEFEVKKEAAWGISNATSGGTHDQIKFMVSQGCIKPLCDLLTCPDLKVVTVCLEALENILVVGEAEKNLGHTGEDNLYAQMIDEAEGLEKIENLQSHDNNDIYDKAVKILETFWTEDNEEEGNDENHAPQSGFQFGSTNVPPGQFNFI
Sequence of importin α2 (IMPα2), Arabidopsis thaliana, recombinant (F4JL11 whole entry): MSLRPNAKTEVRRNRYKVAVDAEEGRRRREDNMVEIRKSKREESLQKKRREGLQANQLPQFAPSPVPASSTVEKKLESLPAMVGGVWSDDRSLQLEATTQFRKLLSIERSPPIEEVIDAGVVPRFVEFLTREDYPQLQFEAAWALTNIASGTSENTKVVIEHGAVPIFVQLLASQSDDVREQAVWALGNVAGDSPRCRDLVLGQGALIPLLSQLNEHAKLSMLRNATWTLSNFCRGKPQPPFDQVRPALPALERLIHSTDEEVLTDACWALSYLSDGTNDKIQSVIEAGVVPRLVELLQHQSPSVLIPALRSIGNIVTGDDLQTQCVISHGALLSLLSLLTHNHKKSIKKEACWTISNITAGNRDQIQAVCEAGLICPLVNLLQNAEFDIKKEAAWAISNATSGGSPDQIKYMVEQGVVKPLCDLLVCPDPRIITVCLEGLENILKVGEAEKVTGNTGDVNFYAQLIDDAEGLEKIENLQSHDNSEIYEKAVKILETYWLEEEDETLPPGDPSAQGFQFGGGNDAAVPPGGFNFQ

What is called Kd is a measure of binding affinity in units of concentration. In the case of {5‑TAMRA}-LKRYKRRL [TAMRA‐NOP‐1 (EIN2 NLS peptide, N‐terminally labeled with 5‐TAMRA)], the Kd in assay [1] worked out at 5.8 µM; in assay [2] it was 5.4 µM; in assay [3], 4.6 µM.
